The text below walks through data of patent US6951972.

The data set deals with Ac transposase (Zea mays). The experiment in a line: cell_activity. The following applies: Ds excision from test plasmid in wheat immature embryos; 0 without transposase plasmid.

Substance “Ds-Ubi-bar element (254 bp Ds 5' and 320 bp Ds 3' ends)” registered an activity (blue spots per embryo) of 61.
